Common to all, as to test: cryo-EM structure
Experiment [1] has as its target Rad24-RFC clamp loader (Rad24, Rfc2, Rfc3, Rfc4, Rfc5) (S. cerevisiae, UniProt P32641;P40348;P38629;P40339;P38251).
A further experiment has as its target T1, Ddc1 (S. cerevisiae, UniProt Q08949 1-612).
T1 sequence: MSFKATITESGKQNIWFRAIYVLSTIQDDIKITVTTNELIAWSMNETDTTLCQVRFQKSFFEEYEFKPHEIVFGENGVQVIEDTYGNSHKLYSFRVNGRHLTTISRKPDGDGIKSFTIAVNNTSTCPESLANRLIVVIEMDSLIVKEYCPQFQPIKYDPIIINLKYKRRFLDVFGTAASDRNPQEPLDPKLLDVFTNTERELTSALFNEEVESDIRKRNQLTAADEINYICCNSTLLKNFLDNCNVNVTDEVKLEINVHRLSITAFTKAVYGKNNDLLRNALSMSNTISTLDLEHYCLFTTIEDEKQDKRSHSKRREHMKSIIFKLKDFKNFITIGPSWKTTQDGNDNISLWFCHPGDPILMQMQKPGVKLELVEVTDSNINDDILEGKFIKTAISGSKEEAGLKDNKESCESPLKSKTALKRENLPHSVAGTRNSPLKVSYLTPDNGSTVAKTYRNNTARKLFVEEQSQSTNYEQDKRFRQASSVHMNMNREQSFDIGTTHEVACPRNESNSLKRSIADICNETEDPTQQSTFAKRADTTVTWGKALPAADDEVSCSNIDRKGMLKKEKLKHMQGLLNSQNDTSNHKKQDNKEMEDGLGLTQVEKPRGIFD

Another experiment deals with T2, His-PK-Mec3 (S. cerevisiae, UniProt Q02574 1-474).
T2 sequence: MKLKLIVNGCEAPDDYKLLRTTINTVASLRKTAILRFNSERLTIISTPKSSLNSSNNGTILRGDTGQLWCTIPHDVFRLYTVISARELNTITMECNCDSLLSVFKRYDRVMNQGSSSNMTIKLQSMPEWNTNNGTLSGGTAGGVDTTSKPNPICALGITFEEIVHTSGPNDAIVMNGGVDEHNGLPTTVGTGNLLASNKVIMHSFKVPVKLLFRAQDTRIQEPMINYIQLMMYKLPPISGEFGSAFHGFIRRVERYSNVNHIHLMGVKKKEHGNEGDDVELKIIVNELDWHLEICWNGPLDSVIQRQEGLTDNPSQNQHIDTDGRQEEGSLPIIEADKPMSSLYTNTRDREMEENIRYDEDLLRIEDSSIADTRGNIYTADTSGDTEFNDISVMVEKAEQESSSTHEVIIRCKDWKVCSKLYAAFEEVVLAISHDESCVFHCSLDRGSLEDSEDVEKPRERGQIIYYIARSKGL

B1: 9-1-1 clamp (Ddc1–Mec3–Rad17) (complex)
chain 1: MSFKATITESGKQNIWFRAIYVLSTIQDDIKITVTTNELIAWSMNETDTTLCQVRFQKSFFEEYEFKPHEIVFGENGVQVIEDTYGNSHKLYSFRVNGRHLTTISRKPDGDGIKSFTIAVNNTSTCPESLANRLIVVIEMDSLIVKEYCPQFQPIKYDPIIINLKYKRRFLDVFGTAASDRNPQEPLDPKLLDVFTNTERELTSALFNEEVESDIRKRNQLTAADEINYICCNSTLLKNFLDNCNVNVTDEVKLEINVHRLSITAFTKAVYGKNNDLLRNALSMSNTISTLDLEHYCLFTTIEDEKQDKRSHSKRREHMKSIIFKLKDFKNFITIGPSWKTTQDGNDNISLWFCHPGDPILMQMQKPGVKLELVEVTDSNINDDILEGKFIKTAISGSKEEAGLKDNKESCESPLKSKTALKRENLPHSVAGTRNSPLKVSYLTPDNGSTVAKTYRNNTARKLFVEEQSQSTNYEQDKRFRQASSVHMNMNREQSFDIGTTHEVACPRNESNSLKRSIADICNETEDPTQQSTFAKRADTTVTWGKALPAADDEVSCSNIDRKGMLKKEKLKHMQGLLNSQNDTSNHKKQDNKEMEDGLGLTQVEKPRGIFD
chain 2: MKLKLIVNGCEAPDDYKLLRTTINTVASLRKTAILRFNSERLTIISTPKSSLNSSNNGTILRGDTGQLWCTIPHDVFRLYTVISARELNTITMECNCDSLLSVFKRYDRVMNQGSSSNMTIKLQSMPEWNTNNGTLSGGTAGGVDTTSKPNPICALGITFEEIVHTSGPNDAIVMNGGVDEHNGLPTTVGTGNLLASNKVIMHSFKVPVKLLFRAQDTRIQEPMINYIQLMMYKLPPISGEFGSAFHGFIRRVERYSNVNHIHLMGVKKKEHGNEGDDVELKIIVNELDWHLEICWNGPLDSVIQRQEGLTDNPSQNQHIDTDGRQEEGSLPIIEADKPMSSLYTNTRDREMEENIRYDEDLLRIEDSSIADTRGNIYTADTSGDTEFNDISVMVEKAEQESSSTHEVIIRCKDWKVCSKLYAAFEEVVLAISHDESCVFHCSLDRGSLEDSEDVEKPRERGQIIYYIARSKGL
chain 3: MRINSELANKFSASTVHLEHITTALSCLTPFGSKDDVLIFIDADGLSFVRENNHVIKIQLLLSRELFMSYSYRNETEDHMKLCVKINHILDSVSVMNRNSDDIVECTLSYDGHGSPFVLIFEDSFISERVEYSTYLIKDFDTNGLELDRERISFEAIIKGEALHSALKDLKEIGCKECYVYAKTEANDENVFALISKSQLGFSKIKLPSNRSILEKLQVFDGDSTTVIDGFAVIGFFDFTSFDKIRKSTKIASKVLFRMDVHGVLSVNILSQTDDVIITDTTRPSNNRPGSIRQLQLPKDYPGIVIEVCMLEKESIDEAAQTEIELLMETNELGNRNSFKKSTIRKRYGTDKGNETSNDNLLQLNGKKIKLPSEEENNKNRESEDEENHCKYPTKDIPIFF
With B1, the binding result in experiment [1] was “binds”.

B2: Rad17 (natural protein)
chain: MRINSELANKFSASTVHLEHITTALSCLTPFGSKDDVLIFIDADGLSFVRENNHVIKIQLLLSRELFMSYSYRNETEDHMKLCVKINHILDSVSVMNRNSDDIVECTLSYDGHGSPFVLIFEDSFISERVEYSTYLIKDFDTNGLELDRERISFEAIIKGEALHSALKDLKEIGCKECYVYAKTEANDENVFALISKSQLGFSKIKLPSNRSILEKLQVFDGDSTTVIDGFAVIGFFDFTSFDKIRKSTKIASKVLFRMDVHGVLSVNILSQTDDVIITDTTRPSNNRPGSIRQLQLPKDYPGIVIEVCMLEKESIDEAAQTEIELLMETNELGNRNSFKKSTIRKRYGTDKGNETSNDNLLQLNGKKIKLPSEEENNKNRESEDEENHCKYPTKDIPIFF
For B2, the binding result in the experiment with Ddc1 and in the experiment with His-PK-Mec3 was “binds” each time.

For the origin of these results see doi:10.1101/2021.10.01.462756 (bioRxiv, 2021).
